In publication PMC8419023 one finds fold reduction of binding affinity against wild type data, which are given here for one substance.

For the test, the target named is FITC-Skp2^77−86 peptide (human) (UniProt Q13309). Put plainly: fluorescence polarisation. (In general: Polarisation of emitted light reports the rotation of a fluorescent probe.)
FITC-Skp2^77−86 peptide (human), sequence (Q13309 whole entry, looked up, tested part not stated): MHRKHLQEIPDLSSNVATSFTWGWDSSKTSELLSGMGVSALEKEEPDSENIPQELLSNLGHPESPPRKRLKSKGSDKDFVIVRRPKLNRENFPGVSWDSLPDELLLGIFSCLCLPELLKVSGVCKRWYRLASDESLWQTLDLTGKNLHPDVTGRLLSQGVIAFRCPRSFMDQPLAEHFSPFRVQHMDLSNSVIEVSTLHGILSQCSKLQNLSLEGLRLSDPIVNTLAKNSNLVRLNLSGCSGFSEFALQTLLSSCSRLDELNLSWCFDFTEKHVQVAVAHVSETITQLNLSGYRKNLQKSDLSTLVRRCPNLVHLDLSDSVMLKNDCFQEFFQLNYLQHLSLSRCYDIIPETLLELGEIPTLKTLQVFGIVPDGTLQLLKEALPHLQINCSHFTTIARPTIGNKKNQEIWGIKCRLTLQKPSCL

“CDK2-cyclin A M210A/I213A (from UniProt P24941 1-298; P20248 173-432) (complex)” registered a fold reduction of binding affinity against wild type of 5 fold.
